In patent publication US20220064276A1 (SCHOLAR ROCK, published 2022):
Like-named read-outs stand apart in the source and are kept apart here.

Legend:
[1] = biological target: T1, LTBP-proTGFβ1: transfected human proTGFβ1 presented by endogenous LTBP1/3 of LN229 cells (human); experiment: cell-based or functional assay
[2] = biological target: T2, mouse LTBP1-proTGFβ1 complex (mouse, UniProt Q8CG19 339-1712; P04202 30-390); experiment: cell-based or functional assay
[3] = biological target: T3, human LTBP1-proTGFβ1 complex (human, UniProt Q14766 347-1721; P01137 30-390); experiment: Octet BLI, IgG captured
T3 construct: Large latent complex: one presenting molecule disulfide-linked to a proTGFβ1 dimer; also called Hu LTBP1-proTGFβ1; huLTBP1 proTGFβ1
T3 sequence (Q14766 347-1721 limits assumed, chain 1 of 2): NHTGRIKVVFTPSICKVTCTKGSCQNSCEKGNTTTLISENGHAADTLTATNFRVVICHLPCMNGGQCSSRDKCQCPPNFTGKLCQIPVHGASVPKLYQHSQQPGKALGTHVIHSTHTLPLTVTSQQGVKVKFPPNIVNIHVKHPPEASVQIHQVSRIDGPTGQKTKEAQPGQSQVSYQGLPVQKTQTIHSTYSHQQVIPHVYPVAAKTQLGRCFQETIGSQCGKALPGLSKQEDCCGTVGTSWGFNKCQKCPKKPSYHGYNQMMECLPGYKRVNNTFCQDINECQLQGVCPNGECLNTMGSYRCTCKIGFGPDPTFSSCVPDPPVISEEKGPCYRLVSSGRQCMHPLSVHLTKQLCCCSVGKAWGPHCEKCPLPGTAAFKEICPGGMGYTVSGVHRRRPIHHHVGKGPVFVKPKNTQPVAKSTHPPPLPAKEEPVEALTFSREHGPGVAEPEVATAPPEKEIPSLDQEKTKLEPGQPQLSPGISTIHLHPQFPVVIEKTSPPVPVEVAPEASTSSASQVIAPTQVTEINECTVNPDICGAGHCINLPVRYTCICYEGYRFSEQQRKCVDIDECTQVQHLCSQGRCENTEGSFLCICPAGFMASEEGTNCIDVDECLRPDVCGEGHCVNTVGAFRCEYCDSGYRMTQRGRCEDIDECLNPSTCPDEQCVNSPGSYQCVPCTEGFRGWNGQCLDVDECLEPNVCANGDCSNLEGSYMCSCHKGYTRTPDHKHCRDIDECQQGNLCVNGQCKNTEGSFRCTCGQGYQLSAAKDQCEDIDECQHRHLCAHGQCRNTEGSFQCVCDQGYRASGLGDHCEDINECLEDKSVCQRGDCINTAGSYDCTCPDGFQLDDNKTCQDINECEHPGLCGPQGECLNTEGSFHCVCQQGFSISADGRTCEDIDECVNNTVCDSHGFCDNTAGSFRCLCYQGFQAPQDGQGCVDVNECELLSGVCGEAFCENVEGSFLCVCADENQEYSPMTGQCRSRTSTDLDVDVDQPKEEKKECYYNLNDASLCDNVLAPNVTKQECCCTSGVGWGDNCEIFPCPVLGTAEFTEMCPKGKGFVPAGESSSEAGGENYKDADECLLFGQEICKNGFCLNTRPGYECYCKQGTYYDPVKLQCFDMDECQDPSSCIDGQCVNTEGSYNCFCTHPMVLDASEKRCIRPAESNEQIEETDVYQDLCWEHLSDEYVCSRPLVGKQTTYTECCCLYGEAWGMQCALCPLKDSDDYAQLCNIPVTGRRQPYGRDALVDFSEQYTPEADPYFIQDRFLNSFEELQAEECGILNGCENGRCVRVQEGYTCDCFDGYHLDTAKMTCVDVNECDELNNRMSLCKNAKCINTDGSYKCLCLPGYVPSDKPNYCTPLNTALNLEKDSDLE
T3 sequence (P01137 30-390 limits assumed, chain 2 of 2): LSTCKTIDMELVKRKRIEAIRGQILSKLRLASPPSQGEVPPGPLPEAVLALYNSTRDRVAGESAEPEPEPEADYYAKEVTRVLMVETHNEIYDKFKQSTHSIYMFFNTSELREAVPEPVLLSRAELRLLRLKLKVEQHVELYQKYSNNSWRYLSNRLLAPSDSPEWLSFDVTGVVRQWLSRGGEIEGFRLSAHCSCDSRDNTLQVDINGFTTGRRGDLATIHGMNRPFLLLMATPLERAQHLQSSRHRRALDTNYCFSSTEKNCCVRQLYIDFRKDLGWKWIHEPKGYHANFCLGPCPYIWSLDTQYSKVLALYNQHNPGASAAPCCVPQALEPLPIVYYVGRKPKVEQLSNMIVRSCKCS
Description: (§1) Binding affinities of the optimized antibodies were measured by Octet against human LTBP1-proTGFβ1, human LTBP3-proTGFβ1, mouse LTBP1-proTGFβ1, mouse LTBP3-proTGFβ1, and GARP-proTGFβ1 complexes, essentially as described in Example 6. […] The antigens were allowed to associate for 3 minutes followed by a 5-minute dissociation. Kinetics buffer (ForteBio®) was used throughout the experiment, and KD was determined using a 1:1 fitting model for each antibody antigen pair.

[4] = biological target: T4, human LTBP3-proTGFβ1 complex (human, UniProt Q9NS15 44-1303; P01137 30-390, limits assumed); experiment: Octet BLI, IgG captured
T4 construct: Exemplary entries; also called Hu LTBP3-proTGFβ1; huLTBP3 proTGFb1
Description: as §1

[5] = biological target: T2, mouse LTBP1-proTGFβ1 complex; experiment: Octet BLI, IgG captured
Description: as §1

[6] = biological target: T5, mouse LTBP3-proTGFβ1 complex (mouse, UniProt Q61810 41-1245; P04202 30-390, limits assumed); experiment: Octet BLI, IgG captured
T5 construct: Exemplary entries; also called Mo LTBP3-proTGFβ1; Murine LTBP3 proTGFb1
T5 sequence (Q61810 other isoform, or with tags, fused parts or gaps limits assumed, chain 1 of 2): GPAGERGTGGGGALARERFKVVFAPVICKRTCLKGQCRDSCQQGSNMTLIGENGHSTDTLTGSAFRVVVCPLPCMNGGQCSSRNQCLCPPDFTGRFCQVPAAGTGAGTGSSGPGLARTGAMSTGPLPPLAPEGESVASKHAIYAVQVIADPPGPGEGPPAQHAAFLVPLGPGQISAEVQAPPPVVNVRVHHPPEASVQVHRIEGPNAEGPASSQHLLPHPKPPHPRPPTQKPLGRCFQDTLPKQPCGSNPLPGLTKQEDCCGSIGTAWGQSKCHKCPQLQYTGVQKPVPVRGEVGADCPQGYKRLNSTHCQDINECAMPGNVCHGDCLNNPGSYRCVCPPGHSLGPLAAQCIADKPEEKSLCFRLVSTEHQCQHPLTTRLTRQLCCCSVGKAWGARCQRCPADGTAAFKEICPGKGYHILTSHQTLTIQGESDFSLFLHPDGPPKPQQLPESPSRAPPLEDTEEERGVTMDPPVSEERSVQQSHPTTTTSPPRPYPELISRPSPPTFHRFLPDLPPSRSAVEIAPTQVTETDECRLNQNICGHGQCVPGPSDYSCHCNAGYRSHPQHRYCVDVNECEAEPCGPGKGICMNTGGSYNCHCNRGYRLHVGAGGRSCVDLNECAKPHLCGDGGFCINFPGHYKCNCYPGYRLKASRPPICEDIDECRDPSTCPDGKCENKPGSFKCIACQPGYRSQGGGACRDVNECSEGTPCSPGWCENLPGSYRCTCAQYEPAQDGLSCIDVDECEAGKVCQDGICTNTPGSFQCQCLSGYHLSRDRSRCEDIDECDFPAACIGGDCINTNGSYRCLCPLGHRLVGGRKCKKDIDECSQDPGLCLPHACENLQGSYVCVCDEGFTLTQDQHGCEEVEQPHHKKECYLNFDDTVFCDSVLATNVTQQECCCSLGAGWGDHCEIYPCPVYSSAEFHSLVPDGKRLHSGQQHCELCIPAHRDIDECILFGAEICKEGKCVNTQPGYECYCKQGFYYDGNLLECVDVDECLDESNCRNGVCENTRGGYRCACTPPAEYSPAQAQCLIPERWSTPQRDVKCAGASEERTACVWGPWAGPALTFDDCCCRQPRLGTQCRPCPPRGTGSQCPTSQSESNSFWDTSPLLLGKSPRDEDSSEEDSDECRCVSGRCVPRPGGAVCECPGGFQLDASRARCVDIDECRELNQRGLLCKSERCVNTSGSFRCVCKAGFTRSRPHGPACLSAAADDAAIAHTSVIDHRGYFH
T5 sequence (P04202 30-390 limits assumed, chain 2 of 2): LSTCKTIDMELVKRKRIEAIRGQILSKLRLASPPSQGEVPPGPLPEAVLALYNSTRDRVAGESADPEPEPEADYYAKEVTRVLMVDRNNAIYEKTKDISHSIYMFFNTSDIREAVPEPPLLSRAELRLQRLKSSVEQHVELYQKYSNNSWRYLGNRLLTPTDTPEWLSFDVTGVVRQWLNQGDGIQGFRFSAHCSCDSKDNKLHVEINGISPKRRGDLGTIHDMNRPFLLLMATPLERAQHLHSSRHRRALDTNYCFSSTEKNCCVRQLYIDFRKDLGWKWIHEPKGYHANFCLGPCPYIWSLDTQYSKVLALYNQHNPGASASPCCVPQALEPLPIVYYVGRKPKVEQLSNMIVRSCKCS
Description: as §1

[7] = biological target: T6, human GARP-proTGFβ1 complex (human, UniProt Q14392 18-627; P01137 30-390, limits assumed); experiment: Octet (bio-layer interferometry), response at 200 nM antigen; 0.1 nm cutoff designates meaningful binding
T6 construct: Exemplary entries; also called Hu GARP-proTGFβ1; huGARP proTGFb1
Description: This experiment was performed at 200, 100, 50, and 25 nM human GARP proTGFb1 and human LTBP1 proTGFbl. […] Surface plasmon resonance (SPR)-based assays

[8] = biological target: T1, LTBP-proTGFβ1: transfected human …; experiment: cell-based or functional assay; remark: listed apart in the source
[9] = biological target: T2, mouse LTBP1-proTGFβ1 complex; experiment: cell-based or functional assay; remark: listed apart in the source
[10] = biological target: T1, LTBP-proTGFβ1: transfected human …; experiment: cell-based or functional assay; remark: listed apart in the source
[11] = biological target: T2, mouse LTBP1-proTGFβ1 complex; experiment: cell-based or functional assay; remark: listed apart in the source
[12] = biological target: T2, mouse LTBP1-proTGFβ1 complex; experiment: Octet BLI, IgG captured; remark: listed apart in the source
Description: (§2) LTBP complex-specific antibodies from the first round of affinity maturation/optimization (SR-AB14, SR-AB16, SR-AB17, SR-AB18, SR-AB19) were selected for a second round of affinity maturation/optimization (i.e., CDR-H3 mutagenesis as described herein) and particular progeny antibodies (SR-AB20, SR-AB21, SR-AB22, SR-AB23, SR-AB24, SR-AB25, SR-AB26, SR-AB27, SR-AB28, and SR-AB29) were assessed for their ability to bind various proTGFβ1 constructs. Binding affinities of the optimized antibodies were measured by Octet against human LTBP1-proTGFβ1, human LTBP3-proTGFbl, mouse LTBP1-proTGFβ1, mouse LTBP3-proTGFbl, and GARP-proTGFβ1 complexes, essentially as described in Example 6. […] The antigens were allowed to associate for 3 minutes followed by a 5-minute dissociation. Kinetics buffer (ForteBio®) was used throughout the experiment, and KD was determined using a 1:1 fitting model for each antibody antigen pair.

[13] = biological target: T5, mouse LTBP3-proTGFβ1 complex; experiment: Octet BLI, IgG captured; remark: listed apart in the source
Description: as §2

[14] = biological target: T3, human LTBP1-proTGFβ1 complex; experiment: Octet binning; competitor (immobilized second antibody) SR-AB1
Description: (§3) 500 nM of human LTBP1-proTGFb1 complex was pre-incubated with 1 μM of each test antibody. After an overnight incubation, the LTBP1-proTGFβ1+first antibody was tested for binding to a second antibody which was immobilized to an Anti-Human IgG Fc Capture (AHC) sensor tip at 67 nM. The sensor tip was blocked with a negative control antibody (HuNeg) before seeing the LTBP1-proTGFβ1+first antibody.
(§4) Normalized responses less than 70% or less than 0.7 of the uninhibited interaction were considered antibodies that cross block.

[15] = biological target: T3, human LTBP1-proTGFβ1 complex; experiment: Octet binning; competitor (immobilized second antibody) SR-AB2
Description: as §3, §4

[16] = biological target: T3, human LTBP1-proTGFβ1 complex; experiment: Octet binning; competitor (immobilized second antibody) SR-AB10
Description: as §3, §4

[17] = biological target: T3, human LTBP1-proTGFβ1 complex; experiment: Octet binning; competitor (immobilized second antibody) SR-AB13
Description: as §3, §4

[18] = biological target: T6, human GARP-proTGFβ1 complex; experiment: Octet (bio-layer interferometry), yeast expressed IgG1Agly antibody, antigen at a single 100 nM per Example 6
[19] = biological target: T3, human LTBP1-proTGFβ1 complex; experiment: Octet (bio-layer interferometry), yeast expressed IgG1Agly antibody, antigen at a single 100 nM per Example 6, 1:1 fit; value printed under the panel
[20] = biological target: T2, mouse LTBP1-proTGFβ1 complex; experiment: as above
[21] = biological target: T5, mouse LTBP3-proTGFβ1 complex; experiment: as above
[22] = biological target: T3, human LTBP1-proTGFβ1 complex; experiment: SPR Biacore 8K, Fab over captured antigen
Description: (§5) A Biacore 8K system was employed to determine the monovalent binding affinity and the kinetic parameters for antigen binding of test antibodies. Association and dissociation kinetics of Fab fragments SR-AB42-HuFab, SR-AB63-HuFab and SR-AB43-HuFab to antigen complexes were measured, and resulting ka, kd and KD are provided below. Briefly, the binding kinetics were evaluated by surface plasmon resonance using Biacore 8K (GE Healthcare). Biotinylated capture antigens were immobilized to the chip (10 nM, ˜200 RU loading). A Biotin CAPture sensor chip was used to capture the biotinylated antigens. […] 0 nM was used as a reference. […] 0 nM was used as a reference. Multi-cycle kinetics was employed where each analyte concentration was injected in a separate cycle and the sensor chip surface was regenerated after each cycle. A11 the assays were carried out in freshly prepared 1× HBS-EP+ buffer (10 mM HEPES, 150 mM NaCl, 3 mM EDTA, 0.05% Tween20, pH 7.4). Data were fit globally to a 1:1 binding model to obtain the kinetic parameters. The sensorgram for 0 nM analyte concentration was used as reference.

[23] = biological target: T5, mouse LTBP3-proTGFβ1 complex; experiment: SPR Biacore 8K, Fab over captured antigen; mean of 2
Description: as §5

[24] = biological target: T3, human LTBP1-proTGFβ1 complex; experiment: Octet BLI, IgG captured; remark: listed apart in the source
Description: as §2

T2 sequence (Q8CG19 339-1712 limits assumed, chain 1 of 2): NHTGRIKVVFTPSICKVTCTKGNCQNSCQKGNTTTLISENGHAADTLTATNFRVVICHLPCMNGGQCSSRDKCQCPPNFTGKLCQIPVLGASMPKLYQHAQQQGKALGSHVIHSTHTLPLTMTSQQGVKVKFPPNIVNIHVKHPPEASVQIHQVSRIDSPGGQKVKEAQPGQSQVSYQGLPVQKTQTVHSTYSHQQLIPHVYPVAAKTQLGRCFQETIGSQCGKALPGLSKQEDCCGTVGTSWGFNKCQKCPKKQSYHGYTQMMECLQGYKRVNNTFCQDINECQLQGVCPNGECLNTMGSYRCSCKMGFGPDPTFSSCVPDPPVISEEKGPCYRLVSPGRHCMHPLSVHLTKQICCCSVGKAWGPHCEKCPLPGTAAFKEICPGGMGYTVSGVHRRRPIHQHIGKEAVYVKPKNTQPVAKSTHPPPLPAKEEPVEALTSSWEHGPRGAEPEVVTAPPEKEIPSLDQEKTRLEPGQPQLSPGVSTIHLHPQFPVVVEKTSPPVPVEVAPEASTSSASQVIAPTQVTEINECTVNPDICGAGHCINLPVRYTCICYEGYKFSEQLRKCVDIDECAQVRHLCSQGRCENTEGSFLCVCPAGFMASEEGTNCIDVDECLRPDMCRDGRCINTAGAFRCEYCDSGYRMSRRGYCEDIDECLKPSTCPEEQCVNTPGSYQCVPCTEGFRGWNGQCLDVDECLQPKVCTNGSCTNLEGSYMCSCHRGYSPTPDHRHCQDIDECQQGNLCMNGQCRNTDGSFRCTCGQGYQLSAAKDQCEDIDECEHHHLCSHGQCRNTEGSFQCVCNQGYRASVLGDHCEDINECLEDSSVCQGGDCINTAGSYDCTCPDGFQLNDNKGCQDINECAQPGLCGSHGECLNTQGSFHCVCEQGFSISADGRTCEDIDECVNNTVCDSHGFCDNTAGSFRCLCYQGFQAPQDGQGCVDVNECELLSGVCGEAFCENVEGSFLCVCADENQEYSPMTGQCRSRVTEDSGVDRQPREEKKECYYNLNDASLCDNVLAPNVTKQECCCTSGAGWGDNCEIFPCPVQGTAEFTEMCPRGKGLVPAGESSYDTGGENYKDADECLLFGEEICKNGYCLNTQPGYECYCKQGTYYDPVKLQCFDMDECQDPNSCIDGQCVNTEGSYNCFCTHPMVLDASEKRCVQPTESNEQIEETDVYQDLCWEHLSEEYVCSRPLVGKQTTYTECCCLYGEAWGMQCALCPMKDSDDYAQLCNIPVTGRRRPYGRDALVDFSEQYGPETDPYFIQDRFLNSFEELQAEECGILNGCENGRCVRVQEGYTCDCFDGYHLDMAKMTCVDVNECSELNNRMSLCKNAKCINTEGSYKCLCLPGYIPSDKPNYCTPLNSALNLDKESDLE
T2 sequence (P04202 30-390 limits assumed, chain 2 of 2): as the sequence (P04202 30-390 limits assumed, chain 2 of 2) above
T1 sequence (P01137 30-390): as the sequence (P01137 30-390 limits assumed, chain 2 of 2) above

B1: SR-AB62 (antibody, IgG1, V domains shown)
VH: QLQLQESGPGLAKPSETLSLTCTVSGGSIRSSSYYWGWIRQPPGKGLEWIGSISYSATTYYNPSLKSRVTISVDTSKNQFSLKLSSVTAADTAVYYCASDPSYDSAAGMDVWGQGTTVTVSS
VL: DIQMTQSPSSLSASVGDRVTITCRASKVISSYLNWYQQKPGKAPKLLIYYASSLQSGVPSRFSGSGSGTDFTLTISSLQPEDFATYYCQQSNDWPFTFGGGTKVEIK
notes: Cycle 3, lineage SR-AB24
For B1, the “IC50, endogenous hLTBP assay (CAGA12 luciferase)” value (from here on “IC50, endogenous hLTBP assay”) [1] was 8.68 nM, the “IC50, mLTBP1 assay (CAGA12 luciferase)” value [2] was 0.386 nM and the Kd [3] was 0.486 nM. It also gave a koff [3] of 6.82e-05 s⁻¹, a kon [3] of 140000 M⁻¹ s⁻¹ and a Kd [4] of 0.368 nM. It also gave a koff [4] of 7.47e-05 s⁻¹, a kon [4] of 203000 M⁻¹ s⁻¹ and a Kd [5] of 0.609 nM. For the same binder, the Kd [6] was 3.37 nM and the binding result [7] was “no binding (tested: 200 nM)”.

B2: SR-AB10 (antibody, IgG1, V domains shown)
VH: QLQLQESGGGVVQPGRSLRLSCAASGFTFNNYPIHWVRQAPGKGLEWVAVMSYDGINKYYADSVKGRFTISRDNSKNTLYLQMNSLRAEDTAVYYCARPRIAARRGGFDYWGQGTLVTVSS
VL: NFMLTQPHSVSESPGKTVTISCTRSSGNIDNNYVQWYQQRPGSSPTTVIYEDNQRPSGVPDRFSGSIDSSSNSASLTISGLKTEDEADYYCQSYDSDNQGVVFGGGTKLTVL
notes: Parent antibody
In the case of B2, the “IC50, endogenous hLTBP assay” value [8] is reported as 3.64 nM, the “IC50, mLTBP1 assay (CAGA12 luciferase)” value [9] is reported as 119 nM and the “IC50, endogenous hLTBP assay” value [10] is reported as 3.64 nM. For the same binder, the “IC50, mLTBP1 assay (CAGA12 luciferase)” value [11] was 119 nM, the Kd [12] was 14.2 nM and the Kd [13] was 23 nM. For the same binder, the normalized response [14] was 0.82 fraction of uninhibited binding, the normalized response [15] was 1.53 fraction of uninhibited binding and the normalized response [16] was 0.51 fraction of uninhibited binding. The normalized response [17] was 1.27 fraction of uninhibited binding, the binding result [18] was “no binding (tested: 100 nM)” and the Kd [19] was 308 nM. For the same binder, the Kd [20] was 79 nM and the Kd [21] was 86 nM.

B3: SR-AB43-HuFab (Fab, V domains shown)
VH: QVQLVESGGGVVQPGRSLRLSCAASGFTFRSYVMHWVRQAPGKGLEWVAVISHEGSLKYYADSVKGRFTISRDNSKNTLYLQMNSLRAEDTAVYYCARPRIAARRGGFGYWGQGTLVTVSS
VL: NFMLTQPHSVSESPGKTVTISCTRSSGNIDYNYVQWYQQRPGSSPTTVIYEDNVRPSGVPDRFSGSIDSSSNSASLTISGLKTEDEADYYCQSYDSDNQRVVFGGGTKLTVL
notes: Human Fab; also called SR-AB43 Fab
For B3, the Kd [22] was 0.276 nM, the koff [22] was 0.000284 s⁻¹ and the kon [22] was 1.03e+06 M⁻¹ s⁻¹. It also gave a Kd [23] of 4.43 nM.

B4: SR-AB22 (antibody, IgG1, V domains shown)
VH: QVQLVESGGGVVQPGRSLRLSCAASGFTFRSYVMHWVRQAPGKGLEWVAVISHEGSLKYYADSVKGRFTISRDNSKNTLYLQMNSLRAEDTAVYYCAVPRIAARRGGFGYWGQGTLVTVSS
VL: NFMLTQPHSVSESPGKTVTISCTRSSGNIDNNYVQWYQQRPGSSPTTVIYEDNQRPSGVPDRFSGSIDSSSNSASLTISGLKTEDEADYYCQSYDSDNQGVVFGGGTKLTVL
notes: Cycle 2, lineage SR-AB14
B4 was tested, and the “IC50, endogenous hLTBP assay” value [8] was 4.62 nM, the “IC50, mLTBP1 assay (CAGA12 luciferase)” value [9] was 1.39 nM and the Kd [24] was 1.88 nM. It also gave a Kd [12] of 2.43 nM and a Kd [13] of 1.56 nM.
